B1: Histone deacetylase 7 (Mus musculus), Q8C2B3-1 (parent)
chain: MHSPGAGCPALQPDTPGSQPQPMDLRVGQRPTVEPPPEPALLTLQHPQRLHRHLFLAGLHQQQRSAEPMRLSMDPPMPELQGGQQEQELRQLLNKDKSKRSAVASSVVKQKLAEVILKKQQAALERTVHPSSPSIPYRTLEPLDTEGAARSVLSSFLPPVPSLPTEPPEHFPLRKTVSEPNLKLRYKPKKSLERRKNPLLRKESAPPSLRRRPAETLGDSSPSSSSTPASGCSSPNDSEHGPNPALGSEADGDRRTHSTLGPRGPVLGNPHAPLFLHHGLEPEAGGTLPSRLQPILLLDPSVSHAPLWTVPGLGPLPFHFAQPLLTTERLSGSGLHRPLNRTRSEPLPPSATASPLLAPLQPRQDRLKPHVQLIKPAISPPQRPAKPSEKPRLRQIPSAEDLETDGGGVGPMANDGLEHRESGRGPPEGRGSISLQQHQQVPPWEQQHLAGRLSQGSPGDSVLIPLAQVGHRPLSRTQSSPAAPVSLLSPEPTCQTQVLNSSETPATGLVYDSVMLKHQCSCGDNSKHPEHAGRIQSIWSRLQERGLRSQCECLRGRKASLEELQSVHSERHVLLYGTNPLSRLKLDNGKLTGLLAQRTFVMLPCGGVGVDTDTIWNELHSSNAARWAAGSVTDLAFKVASRELKNGFAVVRPPGHHADHSTAMGFCFFNSVAIACRQLQQHGKASKILIVDWDVHHGNGTQQTFYQDPSVLYISLHRHDDGNFFPGSGAVDEVGTGSGEGFNVNVAWAGGLDPPMGDPEYLAAFRIVVMPIAREFAPDLVLVSAGFDAAEGHPAPLGGYHVSAKCFGYMTQQLMNLAGGAVVLALEGGHDLTAICDASEACVAALLGNKVDPLSEESWKQKPNLSAIRSLEAVVRVHRKYWGCMQRLASCPDSWLPRVPGADAEVEAVTALASLSVGILAEDRPSERLVEEEEPMNL
partner: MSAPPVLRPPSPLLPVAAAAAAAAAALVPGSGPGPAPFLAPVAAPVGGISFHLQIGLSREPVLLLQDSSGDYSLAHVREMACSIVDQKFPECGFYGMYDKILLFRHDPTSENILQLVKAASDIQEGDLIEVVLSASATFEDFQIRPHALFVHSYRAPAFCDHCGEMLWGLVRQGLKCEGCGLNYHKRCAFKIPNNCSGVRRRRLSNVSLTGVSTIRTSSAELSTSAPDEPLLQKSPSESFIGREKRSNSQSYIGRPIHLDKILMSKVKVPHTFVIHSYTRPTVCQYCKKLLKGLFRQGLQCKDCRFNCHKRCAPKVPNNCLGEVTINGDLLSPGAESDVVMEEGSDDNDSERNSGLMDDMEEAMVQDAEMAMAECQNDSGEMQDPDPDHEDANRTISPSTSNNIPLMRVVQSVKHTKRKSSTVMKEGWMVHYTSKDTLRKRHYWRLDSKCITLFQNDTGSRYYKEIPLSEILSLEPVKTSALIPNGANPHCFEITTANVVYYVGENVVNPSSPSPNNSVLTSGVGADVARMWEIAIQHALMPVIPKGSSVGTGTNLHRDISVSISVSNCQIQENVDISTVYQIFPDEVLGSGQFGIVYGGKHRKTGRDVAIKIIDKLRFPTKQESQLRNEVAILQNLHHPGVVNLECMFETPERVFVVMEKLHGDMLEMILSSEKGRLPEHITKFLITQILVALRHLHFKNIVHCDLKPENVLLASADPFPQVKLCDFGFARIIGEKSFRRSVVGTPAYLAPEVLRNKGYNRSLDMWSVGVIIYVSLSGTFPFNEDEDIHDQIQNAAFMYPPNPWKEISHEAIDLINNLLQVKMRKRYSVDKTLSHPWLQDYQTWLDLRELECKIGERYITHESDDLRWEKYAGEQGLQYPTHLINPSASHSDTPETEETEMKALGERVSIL

Variants of: B1
Details: with kpcd1_human PRKD1, Q15139

Row | Variant | effect of a mutation on the interaction
1 | S178A;S344A;S479A | increasing interaction strength

Reference: IntAct's records for PubMed 18509061
